# Measurements as given in the supplement of paper PMC5998384.
# Key:
# HeLa Kyoto [1] = assay: solubility change mitosis vs G1/S (difference of NP-40 vs SDS log2 ratios) (log2 ratio difference); higher = more soluble in mitosis
# HeLa Kyoto [2] = assay: solubility in G1/S (NP-40 vs SDS abundance) (log2 ratio); higher = more soluble; settings: cell cycle stage: G1/S
# HeLa Kyoto [3] = assay: melting temperature (median over replicates), in situ; higher = more thermally stable
# HeLa Kyoto [4] = assay: thermal stability score vs G1/S (z-score of summed log2 fold changes over temperatures); higher = more thermally stable than in G1/S
# [5] = cell cycle stage: early G1 (4.5 h after nocodazole release)
# 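Wherever melting temperature (median over replicates), in situ is given: HeLa Kyoto cells synchronized by double thymidine or nocodazole block, proteins quantified by TMT10plex mass spectrometry, three independent biological replicates.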
# 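Wherever solubility change mitosis vs G1/S (difference of NP-40 vs SDS log2 ratios) is given: synchronized HeLa Kyoto cells (double thymidine block for G1/S, nocodazole release for mitosis), protein amounts in NP-40 versus SDS lysates quantified by mass spectrometry, three biological replicates.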
# 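Wherever solubility in G1/S (NP-40 vs SDS abundance) is given: HeLa Kyoto cells arrested at G1/S by double thymidine block, proteins quantified by TMT10plex mass spectrometry in mild NP-40 versus SDS extracts, three biological replicates.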
# 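Wherever thermal stability score vs G1/S (z-score of summed log2 fold changes over temperatures) is given: synchronized HeLa Kyoto cells, proteins quantified by TMT10plex mass spectrometry, three biological replicates, mitosis taken 0.5 h after nocodazole release, G1/S directly after double thymidine block.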
# STK26, sequence (chain, as listed by the source): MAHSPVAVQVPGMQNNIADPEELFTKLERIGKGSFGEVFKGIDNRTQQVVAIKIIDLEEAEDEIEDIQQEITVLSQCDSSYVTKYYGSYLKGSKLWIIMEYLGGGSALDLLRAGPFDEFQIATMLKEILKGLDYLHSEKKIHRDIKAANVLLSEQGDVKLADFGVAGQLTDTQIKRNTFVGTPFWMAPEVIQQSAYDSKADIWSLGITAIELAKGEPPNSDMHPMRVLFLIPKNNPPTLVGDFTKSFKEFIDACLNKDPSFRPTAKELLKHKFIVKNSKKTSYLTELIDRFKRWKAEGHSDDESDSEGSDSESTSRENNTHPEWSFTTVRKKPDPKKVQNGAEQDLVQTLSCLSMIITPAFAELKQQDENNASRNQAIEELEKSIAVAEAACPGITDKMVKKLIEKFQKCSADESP
# SLC7A2, sequence (chain, as listed by the source): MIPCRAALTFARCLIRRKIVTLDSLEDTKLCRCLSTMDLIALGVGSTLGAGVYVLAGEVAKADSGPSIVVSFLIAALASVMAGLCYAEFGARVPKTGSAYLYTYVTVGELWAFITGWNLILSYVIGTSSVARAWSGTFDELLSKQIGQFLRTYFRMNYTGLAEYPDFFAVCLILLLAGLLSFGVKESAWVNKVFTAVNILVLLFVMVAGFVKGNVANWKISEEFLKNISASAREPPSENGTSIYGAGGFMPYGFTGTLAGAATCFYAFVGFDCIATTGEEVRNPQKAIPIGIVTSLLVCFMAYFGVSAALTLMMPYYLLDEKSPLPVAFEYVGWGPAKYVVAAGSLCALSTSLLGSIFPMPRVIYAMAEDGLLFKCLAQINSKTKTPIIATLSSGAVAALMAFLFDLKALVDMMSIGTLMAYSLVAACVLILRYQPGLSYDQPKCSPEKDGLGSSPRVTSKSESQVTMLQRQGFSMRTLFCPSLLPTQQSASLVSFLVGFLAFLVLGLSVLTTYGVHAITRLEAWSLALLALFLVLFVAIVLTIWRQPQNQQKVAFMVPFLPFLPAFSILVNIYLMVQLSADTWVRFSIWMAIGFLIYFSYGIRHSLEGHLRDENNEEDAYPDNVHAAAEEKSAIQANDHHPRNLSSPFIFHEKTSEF
# TLK2, sequence (chain, as listed by the source): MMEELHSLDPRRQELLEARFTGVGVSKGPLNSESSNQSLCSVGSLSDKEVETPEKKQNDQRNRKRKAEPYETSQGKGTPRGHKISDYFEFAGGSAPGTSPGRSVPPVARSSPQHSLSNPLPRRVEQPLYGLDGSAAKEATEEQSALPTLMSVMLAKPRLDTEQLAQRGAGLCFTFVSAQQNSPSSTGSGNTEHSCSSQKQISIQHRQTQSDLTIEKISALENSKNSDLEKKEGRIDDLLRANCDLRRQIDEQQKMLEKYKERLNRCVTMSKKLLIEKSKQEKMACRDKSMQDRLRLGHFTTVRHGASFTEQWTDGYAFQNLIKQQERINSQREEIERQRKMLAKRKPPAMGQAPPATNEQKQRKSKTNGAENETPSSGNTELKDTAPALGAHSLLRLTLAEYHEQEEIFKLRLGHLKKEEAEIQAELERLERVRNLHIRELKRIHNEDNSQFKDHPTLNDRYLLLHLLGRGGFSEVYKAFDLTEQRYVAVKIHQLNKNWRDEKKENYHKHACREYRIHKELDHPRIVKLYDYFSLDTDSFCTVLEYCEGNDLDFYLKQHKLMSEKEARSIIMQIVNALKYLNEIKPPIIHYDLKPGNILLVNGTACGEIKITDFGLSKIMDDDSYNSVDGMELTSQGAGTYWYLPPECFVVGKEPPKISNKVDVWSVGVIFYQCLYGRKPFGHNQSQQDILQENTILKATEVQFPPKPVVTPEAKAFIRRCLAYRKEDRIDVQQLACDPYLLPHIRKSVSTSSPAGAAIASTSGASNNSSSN
# STK24, sequence (chain, as listed by the source): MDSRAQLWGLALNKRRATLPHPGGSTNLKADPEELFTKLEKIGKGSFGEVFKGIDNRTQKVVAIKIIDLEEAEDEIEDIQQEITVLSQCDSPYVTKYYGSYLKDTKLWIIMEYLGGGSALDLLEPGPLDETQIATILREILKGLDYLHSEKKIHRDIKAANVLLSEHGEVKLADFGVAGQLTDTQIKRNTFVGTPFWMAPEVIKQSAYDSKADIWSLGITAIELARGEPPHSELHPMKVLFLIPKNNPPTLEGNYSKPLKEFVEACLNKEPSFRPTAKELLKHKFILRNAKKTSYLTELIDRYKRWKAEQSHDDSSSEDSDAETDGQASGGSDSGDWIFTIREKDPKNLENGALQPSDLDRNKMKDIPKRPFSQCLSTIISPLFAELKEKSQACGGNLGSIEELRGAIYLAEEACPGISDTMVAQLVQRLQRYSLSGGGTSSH
# UAP1, sequence (chain, as listed by the source): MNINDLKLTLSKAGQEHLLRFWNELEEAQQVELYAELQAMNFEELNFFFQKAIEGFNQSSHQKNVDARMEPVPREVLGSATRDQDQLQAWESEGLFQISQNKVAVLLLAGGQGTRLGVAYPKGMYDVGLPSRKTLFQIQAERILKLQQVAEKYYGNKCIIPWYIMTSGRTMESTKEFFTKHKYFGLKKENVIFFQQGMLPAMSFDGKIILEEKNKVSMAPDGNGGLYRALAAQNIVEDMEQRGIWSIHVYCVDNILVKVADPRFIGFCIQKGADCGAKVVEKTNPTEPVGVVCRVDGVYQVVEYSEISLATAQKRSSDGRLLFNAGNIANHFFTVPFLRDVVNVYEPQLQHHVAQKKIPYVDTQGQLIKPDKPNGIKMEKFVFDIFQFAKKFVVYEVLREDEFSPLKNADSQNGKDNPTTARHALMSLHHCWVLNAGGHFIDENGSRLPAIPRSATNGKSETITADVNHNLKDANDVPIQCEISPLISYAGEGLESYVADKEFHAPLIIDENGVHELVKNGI
# SDHA, sequence (chain, as listed by the source): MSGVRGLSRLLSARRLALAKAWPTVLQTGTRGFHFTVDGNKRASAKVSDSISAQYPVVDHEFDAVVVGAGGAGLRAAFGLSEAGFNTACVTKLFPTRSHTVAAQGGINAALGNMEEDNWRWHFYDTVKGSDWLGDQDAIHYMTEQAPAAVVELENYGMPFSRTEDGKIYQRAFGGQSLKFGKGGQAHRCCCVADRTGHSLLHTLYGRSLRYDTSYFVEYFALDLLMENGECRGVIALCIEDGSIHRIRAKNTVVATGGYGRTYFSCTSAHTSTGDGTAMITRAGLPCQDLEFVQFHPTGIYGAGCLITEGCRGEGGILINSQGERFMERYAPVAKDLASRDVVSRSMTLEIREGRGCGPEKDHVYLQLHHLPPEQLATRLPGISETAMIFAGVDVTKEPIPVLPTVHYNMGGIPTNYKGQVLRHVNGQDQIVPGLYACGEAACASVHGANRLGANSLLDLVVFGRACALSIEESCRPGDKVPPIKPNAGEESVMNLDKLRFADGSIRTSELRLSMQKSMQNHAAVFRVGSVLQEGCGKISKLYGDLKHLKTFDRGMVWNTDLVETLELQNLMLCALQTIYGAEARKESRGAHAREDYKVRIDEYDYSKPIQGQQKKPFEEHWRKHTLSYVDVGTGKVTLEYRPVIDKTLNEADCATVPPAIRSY
# TIMM17B, sequence (chain, as listed by the source): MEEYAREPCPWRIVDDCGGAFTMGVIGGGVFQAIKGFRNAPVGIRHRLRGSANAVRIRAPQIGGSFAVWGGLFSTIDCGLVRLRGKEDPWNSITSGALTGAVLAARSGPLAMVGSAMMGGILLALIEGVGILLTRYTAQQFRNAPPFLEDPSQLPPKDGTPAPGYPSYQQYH
Substance,solubility change mitosis (log2) (HeLa Kyoto [1]),solubility in G1/S (log2) (HeLa Kyoto [2]),melting temperature (HeLa Kyoto [3]; cell cycle stage: G1/S),thermal stability score (HeLa Kyoto [4]; [5]),thermal stability score (HeLa Kyoto [4]; cell cycle stage: mitosis),melting temperature (HeLa Kyoto [3]; cell cycle stage: mitosis)
RAPGEF2,-0.144,-0.143,50.8 °C,-0.581,-1.21,
RHOG,-0.00567,0.562,55.9 °C,-1.81,-2.65,55.2 °C
SAMD9,-0.171,-0.156,47.5 °C,0.5,1.68,49.2 °C
SAR1B,-0.182,-0.00727,52.3 °C,0.15,0.55,53.4 °C
SDHA,-0.0448,-0.11,54.7 °C,1.89,2.23,56.4 °C
SLC7A2,-0.149,0.0385,55.5 °C,-3.64,-8.3,57 °C
SLC7A5,-0.0332,0.0865,60.4 °C,-2.12,-3.93,57.8 °C
SMCHD1,-0.104,-0.216,47.4 °C,3.02,5.78,48.7 °C
SPTAN1,0.485,-0.956,53 °C,-0.312,-1.93,51.5 °C
SPTBN2,0.477,-1.02,51.8 °C,0.264,-0.194,50.8 °C
SRGAP2,0.0509,0.0333,50 °C,0.993,0.737,50.5 °C
SRRM2,0.682,-0.81,48.3 °C,-1.58,5.67,50.2 °C
STK24,-0.0565,0.479,51.7 °C,4.29,2.12,52.3 °C
STK26,-0.0994,0.393,49.1 °C,1.96,2.98,49.8 °C
TACC2,-0.0921,0.219,54.3 °C,-1.3,1.83,53.8 °C
TANC2,-0.0218,0.222,,0.0704,0.122,50.3 °C
TATDN1,-0.119,0.194,56.1 °C,-1.11,-2.1,56.4 °C

Substance,solubility change mitosis (log2) (HeLa Kyoto [1]),solubility in G1/S (log2) (HeLa Kyoto [2]),melting temperature (HeLa Kyoto [3]; cell cycle stage: G1/S),thermal stability score (HeLa Kyoto [4]; [5]),thermal stability score (HeLa Kyoto [4]; cell cycle stage: mitosis),melting temperature (HeLa Kyoto [3]; cell cycle stage: mitosis)
TCF20,0.527,-0.513,,0.72,1.03,51.1 °C
TIMM17B,0.0028,0.308,54.9 °C,-0.611,-0.727,57.2 °C
TJP1,0.126,-0.366,49.3 °C,-0.423,1.4,50.3 °C
TLK2,-0.141,-0.0304,50.9 °C,1.27,1.41,52.2 °C
TLN2,0.0273,-0.145,50.5 °C,-0.491,-0.643,50.4 °C
TOP2B,0.675,-2.12,52.2 °C,0.414,1.45,51.6 °C
TPM4,0.532,0.907,55.8 °C,-0.98,-3.48,
TRIOBP,0.0573,0.139,49.1 °C,0.418,1.17,49.3 °C
TRIP12,0.333,-0.461,48.4 °C,-0.291,0.532,48.7 °C
UAP1,-0.119,0.216,53.2 °C,0.837,1.62,53.3 °C
URB1,0.746,-1.55,,0.229,0.403,50.5 °C
USP24,-0.155,-0.205,51.4 °C,0.0834,-0.634,50.5 °C
UTP20,0.363,-1.01,47.3 °C,1.17,5.97,50.7 °C
VLDLR,-0.0963,-0.0421,56.4 °C,-2.48,-3.74,55.4 °C
VPS13C,-0.127,-0.229,52.7 °C,-0.0535,-0.882,53.1 °C
WDR45B,-0.118,0.0796,54.5 °C,0.71,-1.09,57.4 °C
ZZEF1,-0.0476,-0.243,51.8 °C,0.459,0.456,51.5 °C
